Results: the domain aggregation screens of Martell et al. (2025)
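Note: 20 min heating vs room temperature control held 20 min.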

Experiment: soluble fraction after stress (log2 fold change); higher = more stays soluble; pooled small domains, quantitative proteomics
Settings: stress: 75 degC
For “HMTPQVALNDTETAIYEKMKQEKQMLLGELRAQFDISNKLWDTSLKTLTKNQLLAVSKEDDLLFVKL”, the “soluble fraction (log2)” value was -0.195.
With “HMTPQVTVPDVTGQSFASAKQVLESLGLTVKQQGSTGENDKVIGQNPTSGNADKGATITLTTQDS” the “soluble fraction (log2)” value was 0.536.
With “HMTPSTVQVHVAGAVKNPGVYVLLENARNIDAITAAGGATSEADLERINLSEFIRDGQRVYVPYKGDPI” the “soluble fraction (log2)” value was 0.459.
For “HMTPTITNALEEAEKAVSEVQEGKKEIELTPQGAYIRHLQHAIADRYGISSTSTGRDPKRKVIIY”, the “soluble fraction (log2)” value was -0.578.
For “HMTPTNILIVEDEKEIRRFVRTALESEGLRVFESETLQRGLIEAGTRKPDLIILDLGLPDGDGLSYIRDLR”, the “soluble fraction (log2)” value was -0.0383.
With “HMTPTRQATVSVAALNVREQPSLQGRRLGKLTQGTTLTVVGPPGEWLKIEYKGETGFVYASYTSLG” the “soluble fraction (log2)” value was -2.01.
In the case of “HMTPTVEAAKEEVLRVLASAAPRGLTRTELEAEVSFRRTKLRDTLVELERIGRIDSVGRRGNATTYRLIG”, the “soluble fraction (log2)” value is reported as -1.44.
With “HMTPVEVNARGVHVDFSKGGILLEDVVRHLILEALRASEWKRGPAAQLLGISKETLRYRMEKYRLYPP” the “soluble fraction (log2)” value was -2.43.
For “HMTPYEVLVYESLKQKILSGGYAAGEKIPEQSVSEELGVSRSPLRSAIRRLASEGLIEYYPYRGAFVKA”, the “soluble fraction (log2)” value was -1.06.
In the case of “HMTQEAMRSLRKSLQNLSSRQQVIFMLRHYEGLALKEIAEHLGLETGTVKAHLHRAVTQLRKDLVE”, the “soluble fraction (log2)” value is reported as -1.85.
In the case of “HMTQHDIVPLMLKMVDVLTQFVELDIPFLQQERQTRLAALNAMMGRADVSLAEKYRRIMEAYQVETEYG”, the “soluble fraction (log2)” value is reported as -0.0856.
In the case of “HMTQLEVDLFERLITISGVGPRLALAVLSGLEPPDLLRAIQDSDIVRLQGIPGVGKKTAERISLELKDKLS”, the “soluble fraction (log2)” value is reported as -1.35.
In the case of “HMTQQYVEWKVYNVTTIKNKYGFRVKLIFQDGSDATQQKGGFTSKKAAEQARTEVIGQLYSNTYVVY”, the “soluble fraction (log2)” value is reported as -4.59.
With “HMTQSGLTQWEFNMLRQALIEMLGEKPGSVFELARLLPLEQEKNVQALRFLLDHDDQFHLKDEYISFVKRT” the “soluble fraction (log2)” value was -2.34.
In the case of “HMTQTAVFSKGEQEYYFPLSKVLFFETDGNTINVHTADDIYETRYRLYELEEMLPGSFMRISKSAVVNTNR”, the “soluble fraction (log2)” value is reported as 0.00772.
In the case of “HMTRAEVQALLEKQAKDFEVEVVHRGWKKTVQTPEFAGWYSQQPAEIKALAESDDPAVAIRMLDLFSGTK”, the “soluble fraction (log2)” value is reported as -0.0943.
In the case of “HMTRETTQAWWEARQTLPSGEQRSAASLSQEASHVRRFYRWAMQQGLTDRNPADWLPDVRQK”, the “soluble fraction (log2)” value is reported as -0.603.
In the case of “HMTRIHEEVVNQVHDLVKEGRFKAGDQLPSERELAEIFKVSRTSVREALRALETQGLIISRTGMGNFIAD”, the “soluble fraction (log2)” value is reported as -0.249.
In the case of “HMTRILTEDDIVNFLIRQPDTAYIIAKSFNENERKVKELLDLLIKKNKVREEIVNGVVSYAVN”, the “soluble fraction (log2)” value is reported as -0.229.
With “HMTRKQTIYEFLRRMKSQHGLDAVYSTEEIANAVGVSRANVSSDLNRLFEEQLVEKLPGWPVKYRA” the “soluble fraction (log2)” value was -0.344.
For “HMTRNEFMTALRKRLSHLPAEEQDAALKYYEEYFDEAESEEEAARQLGSPDAIADRILADYGAG”, the “soluble fraction (log2)” value was 0.327.
For “HMTRPLVILEDVKFPSYNEIVSLTLPDGTRRGGQVLEVSGNKAIVQVFEGTSGIDVKDTHIELTKSS”, the “soluble fraction (log2)” value was 0.237.
For “HMTRQEFIRKLQEALNGKLDAATIQDHLKFYDDYIIEEMRKGKSEQEVLELLGDPWAIAKTIVDAS”, the “soluble fraction (log2)” value was 0.669.
For “HMTRQKEAILALLTDSRGEALSASELLARLTRSGSSIGRTTVYRLLSQLVDDGVVRAWRDASRGITLYELS”, the “soluble fraction (log2)” value was -1.1.
With “HMTRQPSAKEHAVLTAVKEGLRRDGRAPTVRALADMTGAASTSTVQRRISALIDLGLLRRTDGTLEVVE” the “soluble fraction (log2)” value was 0.0806.
For “HMTRRVIRAPAAGIMRSNVKLGDLVKEGDVIAWIGEHEIKAPLTGMVRGLLNDGLAVVGGFKIGDI”, the “soluble fraction (log2)” value was 0.286.
With “HMTSEPFYNPRRPQPYWTSETDRHTTYADAVRALAREFSETPEWVESNMGETNDLQEIRRNLSRVKSG” the “soluble fraction (log2)” value was 0.125.
In the case of “HMTSESWAEKSRSLAAAGLIVMGRDAQLKIEGLTNLDPLIEAATASSTRLLTGQTIDELLTIVP”, the “soluble fraction (log2)” value is reported as -0.551.
With “HMTSEVLTNATIVKMVKAKLSDDIIIDEINNARVNFDVSPEGIKSLTAQNVTEPVIETMKKAVAAQESI” the “soluble fraction (log2)” value was 0.467.
In the case of “HMTSFDVMLKSAGANKLAVVKLVKELTGLGLKEAKDIVDAAPSKVKEGVSKEEAEELQKQLTGAGAEVEL”, the “soluble fraction (log2)” value is reported as -0.113.
For “HMTSHYTVLGVKETDTIEMIRTHYRKLILQFHPDKNQHLTEEERKKLEVKVLQIREAYEKIKKEK”, the “soluble fraction (log2)” value was -0.433.
In the case of “HMTSIISLAKARSIALQKVPGATSKNIHLSLDDEDDKQVYEGEIKYKQMEYVFEIDAKTGTFLKWTSERD”, the “soluble fraction (log2)” value is reported as -1.92.
With “HMTSKTLSAVEGEGLRLDKFLSNQLPELSRTKIQKMINDGLVFVNNTEAKASLILDGSEFIAYTVPD” the “soluble fraction (log2)” value was -0.243.
In the case of “HMTSLAEQAYRHIRDKLSNGAFVPGEQLVNRVLATEIGVSVIPVREAINRLATEGLVKHVPGSGAFVRQ”, the “soluble fraction (log2)” value is reported as -0.0622.
For “HMTSLYDILGIAKTADSQTIKTAFKKKALLYHPDKNNGNLKKEEIFKKISTAYQILSDPKSRANYDLSIA”, the “soluble fraction (log2)” value was -0.272.
In the case of “HMTSMNNTEELIDMANKIIDNNPNMVLKYKEGRNVLDFFIGQVMKETKGRANPSATSKIFKDLLEK”, the “soluble fraction (log2)” value is reported as -0.0827.
In the case of “HMTSNKTVPYSELKGLISTGKIEYVGIGNTQIRAVSKSGAGIVTYTARRVIPDDTLIPELEKNGIAYGGI”, the “soluble fraction (log2)” value is reported as -0.838.
For “HMTSNSLNLKDEISAFLTKNAGISYSAERIAHALNMDNADQFTPIIQTLAQLEREKKVRVTDKGEFEAVIK”, the “soluble fraction (log2)” value was 0.02.
In the case of “HMTSSKISFIDPVNGGKVSVSLENSTLEKLQNRFGVNSVVRNEAGDVELKDKAQEFVAGWFADIAYTRG”, the “soluble fraction (log2)” value is reported as -0.0154.
For “HMTTAGTAIVQTGNSGKLNLREQAYANAGILGRYSNGTAVTVLQKGAAWSYVEVKGQKGYMMSKFLKFTS”, the “soluble fraction (log2)” value was -1.53.
With “HMTTEIVRMKKDVKIGQEITAKDIEVVEVGAYNLPDEVIRSSEEVVGKYVSSELLKGEYVLPSKISDTP” the “soluble fraction (log2)” value was 0.22.
For “HMTTEPYILTRMPDGSIKAEPNLNYKGPEQKPGSNIQVKGADGRIYLVPIDGQGKPGKPQLVD”, the “soluble fraction (log2)” value was 0.0898.
For “HMTTGLETYPGKIAVVSDDFIDGEGRVQLDGALWRAKTKDHQQLKQGDHVTIVNVKGLTLTVMPDD”, the “soluble fraction (log2)” value was 0.716.
With “HMTTGREGLIGAVGTVRQAIAPEGYVFVEGELWRAKSPAGPLEPGTTVRVIAIDGLTLTVMPAE” the “soluble fraction (log2)” value was -0.965.
In the case of “HMTTGTVKWFNDAKGFGFITPDDRSVDVFVHYSNIVGQSGRRTLMEGERVEYEAIEGPKGPQATDVARA”, the “soluble fraction (log2)” value is reported as -0.223.
For “HMTTIFDNINGELRRRHLTQQDLAKTIEIDRRTWSKWQDKNDMPASVLLQIAKWLNVTLDYLTRD”, the “soluble fraction (log2)” value was -2.57.
In the case of “HMTTIKLTQEDVEKIKSLPKRTFLIGNLQQTGLYDEKTRRFYYLDANGEWNGRLAIINTPPPPPPPP”, the “soluble fraction (log2)” value is reported as 0.0273.
For “HMTTKYMVLVNWVKEKVRTNELKTGEKLYSEHEFSRMFHMSRQTVRHGISILERENIVERRQGSGTFIKDA”, the “soluble fraction (log2)” value was -2.95.
In the case of “HMTTKYVAVHESKDGYWTIASKPSSKEDAEAMLGGTPKNEVGKVVTLEEAKAHKKTLGEEYLYE”, the “soluble fraction (log2)” value is reported as 0.218.
With “HMTTMTTGQRIAAKRKEQGLSQENLGEQLGVSRQAIYKWESDASLPDIDKLIALSRLFGVSTDYLLLE” the “soluble fraction (log2)” value was -0.584.
In the case of “HMTTQIPEEVQKRVNQFYEALDEEDYGEAKQILEELEKATAPDHPTLIQMRTRYEFDTMELR”, the “soluble fraction (log2)” value is reported as 0.329.
For “HMTTTPAERQRTILRSLNRVDPVSVDALARLTGVSVVTIRRDLSDLASRDLIRRVHGGALLPTR”, the “soluble fraction (log2)” value was -1.62.
In the case of “HMTTYSVDLGDIRAVADSDGKLVELTLHAAVTTHYSHSELADRLNLAFTALREEAQADYETRY”, the “soluble fraction (log2)” value is reported as 0.223.
For “HMTTYTGVVTGSGVNVRSGAGTSYPVVGSKTMGDVVTITETVSADGMIWGKIDIGWISMNYVRM”, the “soluble fraction (log2)” value was -2.75.
In the case of “HMTVAQEIEARRATIRSSDPAEMARFIRWLIMEGHTEPAADELKKYAENFPEASATTKQLQALLAAR”, the “soluble fraction (log2)” value is reported as -0.311.
With “HMTVDIADALRVLGLSDAPDWSDVRAAHRRAIVRTHPDAGGSAGDAARVNQAFDLLRKISGNGERPIPG” the “soluble fraction (log2)” value was 0.012.
For “HMTVDTSELEEMIDDLIKEHPNEWERYSSGEKKVQGFFVGQVMKATSGQADGKAINQILSKRVKS”, the “soluble fraction (log2)” value was 0.803.
For “HMTVDYDKFTKDTVVQHNKFGKGVIIMTSGDGEDKIASIAFQGLGVKRFSLAIAASNLKILGKVNED”, the “soluble fraction (log2)” value was -2.48.
With “HMTVEVFQSLVQTFREMSPRKAASILEELKRDLAVEILLHMPEDGVAAILARMDPARAARLTEQLALEKD” the “soluble fraction (log2)” value was -1.86.
For “HMTVGEAHLEEVYLKVLKQVEEQGTALIRTTDVETGRPAAGIRRRYMRGTLPDEWVAKFEALPGWTWAPG”, the “soluble fraction (log2)” value was -3.04.
For “HMTVGEKIQKYRKDLDLSQEELGQKLLVSRQTISLWEKDQTVPTIDNLIRLREIFGVSVDEILGF”, the “soluble fraction (log2)” value was -0.818.
With “HMTVIARQIPPLVPRMLDGLEAFIKLDVPFEEKERLARVQMLRSSLDRDNLDTAEIFRAVLEAYNIELQY” the “soluble fraction (log2)” value was 0.352.
For “HMTVKKEIAKVKPTPLGWLRVRETPSLNGAEITKVNTGESYDVLDKETGWIKIKVSETVEGWVSDAYIELS”, the “soluble fraction (log2)” value was -0.319.
With “HMTVLPTENDAKALVGLNEDEAVKIIEGNGWTYRIGSRDGEQFMLTEDYSTSRLTLGIEKSIVVTATI” the “soluble fraction (log2)” value was -0.543.
With “HMTVLVPNLTGKTLLEAEILLDQAGLKKGDVYSESNKNVPKDHIIRQKPAPNTKIQKGATIDIYRSLGPE” the “soluble fraction (log2)” value was -0.0471.
In the case of “HMTVNLPPKQKAAILLMSLPPEVSAQLFKELGPDEVHAITLEISKLPPISPDVRAQVIDEFLHSS”, the “soluble fraction (log2)” value is reported as -0.641.
For “HMTVSIGSVIARERRLRGDTQQELAERLGVSKAAVSKWEVGQSIPDVTLLPRIAAYFSLTLDEL”, the “soluble fraction (log2)” value was -2.45.
For “HMTVVLPGESLTVNIIQEGKELGQGVGYLDDGTMVVIEDGRRYIDQTIEVTVTRVLQTVAGRMIFAQLT”, the “soluble fraction (log2)” value was -4.46.
In the case of “HMTWDSFIGYTVTDVQKGYLGEITDVDETTINVLLRVDHKGEELLIPAVEELITEADHEARSLTVSLPEGL”, the “soluble fraction (log2)” value is reported as -0.398.
With “HMTYFIADLIGLQVYTDSGELLGKVDDIYNSGSADIYVVKDELGKQILLPGIKDVIKQIDVDNEKIIVHLI” the “soluble fraction (log2)” value was -1.24.
